Data published in patent publication US20170183404A1.

Molecular target: Purified Mor1 (Example 9) (Mus musculus (Mouse)) (UniProt P42866)
Experiment: cell-based or functional assay

Sequence of Heterotrimeric Gi (P63096 2-354): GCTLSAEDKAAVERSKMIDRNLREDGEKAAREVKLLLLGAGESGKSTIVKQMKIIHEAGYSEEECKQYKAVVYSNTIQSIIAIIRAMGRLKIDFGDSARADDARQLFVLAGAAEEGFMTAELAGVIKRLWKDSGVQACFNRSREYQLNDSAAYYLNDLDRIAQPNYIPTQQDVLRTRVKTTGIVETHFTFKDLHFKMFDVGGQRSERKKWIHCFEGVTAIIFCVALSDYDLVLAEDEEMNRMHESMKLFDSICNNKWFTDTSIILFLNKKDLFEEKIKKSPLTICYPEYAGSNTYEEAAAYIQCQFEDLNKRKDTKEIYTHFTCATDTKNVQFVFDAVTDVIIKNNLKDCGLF
Sequence of Heterotrimeric Gi (P62873 2-340): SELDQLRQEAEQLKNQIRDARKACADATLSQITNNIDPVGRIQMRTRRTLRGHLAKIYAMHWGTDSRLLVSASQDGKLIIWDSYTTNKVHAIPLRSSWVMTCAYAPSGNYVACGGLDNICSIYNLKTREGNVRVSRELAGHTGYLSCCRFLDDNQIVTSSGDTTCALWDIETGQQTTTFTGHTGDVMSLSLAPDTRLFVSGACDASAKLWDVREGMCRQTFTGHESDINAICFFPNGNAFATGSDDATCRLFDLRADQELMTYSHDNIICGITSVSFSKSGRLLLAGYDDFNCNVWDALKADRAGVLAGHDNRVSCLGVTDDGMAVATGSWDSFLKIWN

enhancement of agonist (BU72) affinity for Mor1 in HDL particles: 220 fold
Substance: Heterotrimeric Gi (from UniProt P63096 2-354; P62873 2-340)
